Reference: patent publication US20060246071A1 (AstraZeneca / MedImmune, published 2006)
Positions count from the first letter of the chain named.

T1: recombinant human Angiopoietin-2 (human, UniProt O15123 19-496)
T1 construct: also called Ang-2; rhAng-2
T1 sequence: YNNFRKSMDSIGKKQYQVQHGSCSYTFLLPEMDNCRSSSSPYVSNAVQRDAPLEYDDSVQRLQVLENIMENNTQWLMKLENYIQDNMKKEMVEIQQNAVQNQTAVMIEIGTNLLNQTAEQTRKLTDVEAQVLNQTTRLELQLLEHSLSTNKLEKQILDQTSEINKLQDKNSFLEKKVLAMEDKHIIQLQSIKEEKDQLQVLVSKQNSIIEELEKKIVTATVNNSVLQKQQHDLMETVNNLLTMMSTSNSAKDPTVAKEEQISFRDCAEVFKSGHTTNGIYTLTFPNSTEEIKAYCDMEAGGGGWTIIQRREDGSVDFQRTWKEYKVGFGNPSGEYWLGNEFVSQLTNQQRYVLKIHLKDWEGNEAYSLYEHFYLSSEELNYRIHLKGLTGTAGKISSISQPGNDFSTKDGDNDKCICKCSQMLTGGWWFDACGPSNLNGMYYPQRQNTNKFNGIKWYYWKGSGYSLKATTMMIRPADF

T2: mouse Angiopoietin-2 (mouse, UniProt O35608 19-496)
T2 construct: Secreted into the supernatant of HEK293F/293T cells transfected with the full-length open reading frame of 496 amino acids (GenBank BC027216); also called mAng-2; mouse Ang-2
T2 sequence: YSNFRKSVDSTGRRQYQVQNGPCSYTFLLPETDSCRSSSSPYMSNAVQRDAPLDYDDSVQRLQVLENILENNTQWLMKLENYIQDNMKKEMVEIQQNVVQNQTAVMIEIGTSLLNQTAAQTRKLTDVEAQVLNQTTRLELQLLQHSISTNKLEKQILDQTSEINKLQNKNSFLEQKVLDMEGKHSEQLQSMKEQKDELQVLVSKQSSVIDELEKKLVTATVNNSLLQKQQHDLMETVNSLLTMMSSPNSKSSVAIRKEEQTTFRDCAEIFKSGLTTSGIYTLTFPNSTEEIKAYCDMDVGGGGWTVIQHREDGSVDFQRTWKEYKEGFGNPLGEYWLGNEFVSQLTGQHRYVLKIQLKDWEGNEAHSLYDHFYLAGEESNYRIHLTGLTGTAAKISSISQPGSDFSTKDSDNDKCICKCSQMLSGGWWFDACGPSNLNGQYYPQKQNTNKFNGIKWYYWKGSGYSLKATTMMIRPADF

B1: mAb 3.3.2 (antibody, V domains shown)
VH: EVQLVESGGGLVQPGGSLRLSCAVSGFTFSSYWMSWVRQAPGKGLEWVANIKQDGSEKYYVDSVKGRFTISRDNAKNSLYLQMNSLRAEDTAVYYCARDQGIAVAGPFDYWGQGTLVTVSS
VL: EIVMTQSPATLSVSPGERATLSCRASQTVSSDLAWYQQKPGQAPRLLIYGASIRATGIPARFSGSGSGTEFTLTISSLQSEDFAVYSCQQYYNWWTFGQGTKVEIKR
notes: Variable regions only; hybridoma-derived fully human IgG kappa; also called 3.3.1; x3.3
B2: mAb 5.88.3 (antibody, V domains shown)
VH: EVQMVESGGGLVQPGGSLRLSCAASGFTLRSYWMSWVRQAPGKGLEWVANIKEDGSEKYHVDSVKGRFTISRDNAENSLFLQMSSLRAEDTAVYYCARDMEASAGLFDYWGQGTLVTVSS
VL: B1 VL with T20I, T28S, V29I, D32N, I53T, S87Y, Y92N, N93Y
notes: Variable regions only; hybridoma-derived fully human IgG kappa; also called x5.88*
B3: mAb 3.31.2 (antibody, V domains shown)
VH: EVQLVESGGGLVQPGGSLRLSCAASGFTFSSYWMSWVRQAPGKGLEWVANIKQDGSDKYYVDSVKGRFTISRDNAKNSLYLRMNSLRAEDTAVFYCARDMGSGWFDYWGQGTLVTVSS
VL: B1 VL with I2V, T28S, S30G, D32N, I53T, S87C, Y92N, N93H
notes: Variable regions only; hybridoma-derived fully human IgG kappa; also called x3.31*
B4: mAb 5.101.1 (antibody, V domains shown)
VH: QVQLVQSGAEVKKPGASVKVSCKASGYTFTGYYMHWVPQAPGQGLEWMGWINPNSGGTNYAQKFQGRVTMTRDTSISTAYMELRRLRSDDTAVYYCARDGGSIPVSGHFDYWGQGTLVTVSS
VL: B1 VL with T28S, V29L, S30I, D32N, Y49F, I53T, S87Y, Q89H, Y92N
notes: Variable regions only; hybridoma-derived fully human IgG kappa; also called x5.101
B5: mAb 5.103.1 (antibody, V domains shown)
VH: QVQLVQSGAEVKKPGASVKVSCKASGYTFTGYYLYWVPQAPGQGLEWMGWISPNSGGTNYAQKFQGRVTMTRDTSISTAYMELSRLRSDDTAVYYCARDQVIAVAGPFDYWAQGTLVTVSS
VL: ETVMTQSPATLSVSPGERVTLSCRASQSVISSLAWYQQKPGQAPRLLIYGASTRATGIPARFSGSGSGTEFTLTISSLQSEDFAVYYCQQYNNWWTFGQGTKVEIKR
notes: Variable regions only; hybridoma-derived fully human IgG kappa; also called x5.103*
B6: mAb 5.86.1 (antibody, V domains shown)
VH: B5 VH with Y33H, L34M, P38R, M48L, S52N, A97V, V101G, V104A, A112C
VL: DIRMTQSPSSLSASVGDRVTITCRASQRISTYLNWYQQKPGKAPKFLIYAASSLQSGVPSRFSGSGSGTDFTLTISSLQPEDFATYYCQQSYTTPFTFGPGTKVDIKR
notes: Variable regions only; hybridoma-derived fully human IgG kappa; also called x5.86
B7: mAb 3.19.3 (antibody, V domains shown)
VH: QVQLVESGGGVVQPGRSLRLSCAASGFTFTNYGMHWGRQAPGKGLEWVAVISHDGNNKYYVDSVKGRFTISRDNSKNTLYLQMNSLRAEDTAVYYCAREGIDFWSGLNWFDPWGQGTLVTVSS
VL: EIVLTQSPGTLSLSPGERATLSCRASQSITGSYLAWYQQKPGQAPRLLICGASSWATGIPDRFSGSGSGTDFTLTISRLEPEDFAVYYCQQYSSSPITFGQGTRLEIKR
notes: Variable regions only; hybridoma-derived fully human IgG kappa; also called x3.19
B8: mAb 5.28.1 (antibody, V domains shown)
VH: EVQLVESGGIVVQPGGSLRLSCAASGFTFDDYTMHWVRQTPGKGLEWVSLISWDGGSTYYADSVKGRFTISRDNSKNSLYLQMNSLRTEDTALYYCAKDIDIAVAGTGFDHWGQGTLVTVSS
VL: EIVMTQSPATLSVSPGERATLSCRASQSVTSNLAWYQQKPGQAPRLLIYGALIRATGIPARFSGSGSGTEFTLTISSLQSEDFAVYYCQQYNNWPFTFGPGTKVDIKR
notes: Variable regions only; hybridoma-derived fully human IgG kappa; also called x5.28

Columns and labels:
[1] = biological target: T1, recombinant human Angiopoietin-2; assay: competition ELISA, Ang-2 on coated Tie2/Fc
Description: 96-well Nunc Immplates™ were coated with 100 μl of recombinant human Tie2/Fc fusion protein (R&D Systems, Inc., Cat. No. 313-TI-100) at 4 μg/ml by incubating overnight at 4° C. The plates were washed four times using Phosphate Buffer Saline (PBS) with a Skan™ Washer 300 station (SKATRON). The wells were blocked by 100 μl of ABX-blocking buffer (0.5% BSA, 0.1% Tween, 0.01% Thimerosal in PBS) for 1 hour.
The plates were incubated at room temperature for two hours before the unbound molecules were washed off. […] After washing twice, the bound Streptavidin was detected by HRP substrate (R&D Systems, Cat. No. DY998). The plates were incubated for 30 minutes before 450 stop solution (100 μl/well, BioFX, Cat #BSTP-0100-01) was added to terminate the reaction. The light absorbance at 450 nm was determined by a Spectramax Plus reader.
Each concentration of the mAb was tested in duplicate. The concentration-response relationship was found by curve fitting using Graphpad Prism™ graphic software (non-linear, Sigmnoid curve). The maximal inhibition (efficacy) and IC₅₀ (potency) were calculated by the software.

mouse Angiopoietin-2 [2] = biological target: T2, mouse Angiopoietin-2; assay: direct ELISA on plates coated with conditioned medium of HEK293F/mouse Ang-2 transfectants, detection with anti-human Fc-HRP
Description: The plates were incubated at 4° C. overnight, followed by washing four times using Phosphate Buffer Saline with a Skan Washer 300 station (SKATRON). The wells were blocked by 100 μl of ABX-block buffer (0.5% BSA, 0.1% Tween, 0.01% Thimerosal in PBS) for 1 hour. […] The mAbs and each of their dilutes were tested in duplicate. […] To set up the detecting chromagenic reaction, 100 μl of TMB substrate (TMB-microwell, BioFX, Cat. No. TMSK-1000-01) was added after washing the wells three times using PBS. The plates were incubated for 30 minutes before 650 stop solution (100 μl/well, BioFX, Cat. No. BSTP-0100-01) was added to terminate the reaction.

[3] = biological target: T1, recombinant human Angiopoietin-2; assay: competition ELISA: mAb titrated with recombinant human Ang-2 on plates coated with human Tie2/Fc; blocked partner: human Tie2/Fc
Description: (§1) For this purpose, an ELISA plate was coated with 4 μg/ml of hTie2/Fc (R&D Systems, Inc.) at 100 μl/well, and the wells were blocked as routine at 4° C. overnight.
(§2) Each concentration of the mAb was tested in triplicate. […] OD650 was determined 30 min after the HRP substrate was added.

mouse Angiopoietin-2 [4] = biological target: T2, mouse Angiopoietin-2; assay: competition ELISA: mAb titrated with mouse Ang-2 supernatant on plates coated with human Tie2/Fc; blocked partner: human Tie2/Fc
Description: as §1, §2

| Binder | Efficacy (ratio of bound Ang-2 with mAbs (30 µg/ml) versus without mAbs) [1] | also measured |
| --- | --- | --- |
| B1 | 0.388 |  |
| B2 | 0.403 |  |
| B3 | 0.375 |  |
| B4 | 0.364 |  |
| B5 | 0.232 |  |
| B6 | 0.384 |  |
| B7 | 0.395 | EC50 (read off the curve) (mouse Angiopoietin-2 [2]): ~1 µg/mL; IC50 (read off the curve) [3]: ~0.7 µg/mL; IC50 (read off the curve) (mouse Angiopoietin-2 [4]): ~2 µg/mL |
| B8 | 0.389 |  |
